Reference: article PMC5551578 (The Journal of Experimental Medicine, 2017)
Numbering of substitutions follows the chain as printed.

B1: H1-Ab32 (antibody, V domains shown)
VH: EVQLVESGGGLVQPGGSLRLSCAASSFTFSNYAMSWVRQAPGKGLEWVSLINSGGGDKYYADSVKGRFIVSRDNSKNALYLQMNSLRAEDTAVYFCARVVGRETFGLVIPIYYFDYWGQGDLVTVSS
VL: EIVLTQSPATLSLSPGERATLSCRASQSVSSFLAWYQQKPGQAPRLLIYDASNRATGVPARFSGSGSGTDFTLTISSLEPEDFAVYYCQQCSNWPPLTFGGGTKVEIK
notes: IgG1; source: HEK293T, transfected with heavy and light chain plasmids; purified mAbs
B2: H1-Ab41 (antibody, V domains shown)
VH: QVQLQESGGGVVQPERSLRLSCAASGFKFSSYAMHWVRQAPGKGLEWVAVFWSDGTTKYYANSVRGRFTVSRDNSKNMLYLQINSLRAEDTAVYYCARGFLLPYYGSSGYEYFFDFWGQGTTVTVSS
VL: AIGMTQSPESLAVSLGERATINCKSGQSILHSSNNKNYLAWYQQKPGQPPKLVIYWASTRESGVPDRFSGSGSETDFTLTISSLQAEDVAVYYCQQYYSTPSFGGGTKVEIK
notes: as for B1
B3: H1-Ab55 (antibody, V domains shown)
VH: EVQLVESGPGLVKPSETLSLTCTVSGGSISSDYWSWIRQAPGKGLEWLAYIHHNGRTNYNPSLGSRVAISIDTSRSQFSLKLGSVTAADTAVYYCARDQTGIRKSNAFDLWGQGTLVTVSS
VL: DIQLTQSPSSLSASVGDRVTITCRASQNIRSYLNWYQQKPGKAPKLLIYGVSTLQNGVPSRFSGSASGSDFTLTISSLQPEDFATYHCQQSYDTPQTFGPGTKVEIK
notes: as for B1
B4: H1-Ab30 (antibody, V domains shown)
VH: EVQLVQSGGGLVQPGGSLRLSCAASGFTFSSYAMSWVRQAPGKGLEWVSTISGSGISTYYADSVKGRFTISRDNSKNTLYLQMNSLRADDTAVYYCAKALATHIVMAGTLDFWGQGTLVTVSS
VL: EIVMTQSPATLSVSPEERATLSCRASQSVTNSLAWYQQKPGQAPRLLIYGASTRATGIPARFSGSGSGTEFTLTISSLQSEDFAVYYCQQYNNWPPLTFGGGTKVEIK
notes: as for B1
B5: H1-Ab43 (antibody, V domains shown)
VH: EVQLVESGGNLVQPGGSLTLSCAVSGFAFSNFEANWVRQAPGKGLEWVSYISKSGLTKYYSDSVKGRFTISRDNAKSSLYLQMNSLRAEDTAVYYCVSPIPVAGTMEIYWGQGTLVTVSS
VL: B4 VL with E1D, V3Q, S14F, E16G, V29I, T30R, N31S, S32D, A43P, G68E
notes: as for B1
B6: H1-Ab19 (antibody, V domains shown)
VH: EVQLVESGGGLVKPGGSLRLSCAASGFTFSSYSMHWVRQAPGKGLEWVSSISSIGTYIYYADSVKGRFTISRDNAKNSLYLQLNSLRVEDTAVFYCATGVTSSYGGYSGYFDSWGQGTLVTVSS
VL: DIVMTQSPSSLSASVGDRVTITCQASQDISKHLNWYQQKPGKAPKLLIYDASNLETGVPSRFSGSGSGTDFSFTISSLQPEDIATYYCQQYDNPFLTFGGGTKVEIK
notes: as for B1
B7: H1-Ab59 (antibody, V domains shown)
VH: EVQLVESGPGLVKPSQTLSLTCTVSGGSVSSGGYSWTWIRQPAGKGLEWIGRIYFTGSTNYNPSLKSRITISVDTSKNQFSLRLSSVTAADTAVYYCAREDDFVWGSYRRFAYFDYWGQGTLVTVSS
VL: EIVMTQSPSSLSASVGDRVNITCQASQDISNYLNWYQQKPGEAPKLLIYGASSLQTGVPSRFSGSGSGTNFIFTISSLQPEDLATYYCQQYDNLPMYTFGQGTKVEIK
notes: as for B1
B8: H1-Ab56 (antibody, V domains shown)
VH: EVQLVQSGPGLVKPSETLSLTCTVSGGSISSDYWSWIRQPPGKGLEWIGYIHQNGRTNSNPSLRGRVSMLVDTSESQFSLKLGSVTAADTAVYYCARDQAGIRRSNAFDIWGQGTLVTVSS
VL: DIVMTQSPSSLSASVGDRVTITCRASQSISTYLNWYQQKPGKAPKLLIYAASTLQSGVPSRFSGSASGSEFTLTISSLQPEDFASYYCQQSYDIPQTFGPGTKVEIK
notes: as for B1
B9: H7-Ab13 (antibody, V domains shown)
VH: EVQLVESGPGLVKPSQTLSLTCTVSDGTIGSDAYHWSWIRQYPGRGLEWIGSFYYSGNTYYNPSLKSRLTISVDTSKNQFSLKLNSVTAADTAVYYCARNSAYCTDTRCYNGGGWFHPWGQGTTVTVSS
VL: DIVMTQSPGTLSLSPGERATLSCRASQSVSSTYLAWYQQKPGQAPRFLIYGASRRATGIPDRFSGSGSGTDFTLTISRVEPEDFTVYYCQQYGSSPITFGQGTRLEIK
B10: H7-Ab14 (antibody, V domains shown)
VH: EVQLVESGPRLVKPSGTLSLTCAVSDDSISSAGYYWGWIRQSPGKGLEWIAAFFFGGSAYYNPSLKSRLTISTDTSENQFSLSLASVTAADTAVYYCAVIQLSTPPVPFEIWGQGTLVTVSS
VL: EIVMTQSPGTLSLSPGERATLSCRASQIISSNYLAWYQQKPGQAPRLLIFGASSRATGTPDRFSGSGSGTDFTLTISRLEPEDFVVYYCHQYDSSWYTFGQGTKVEIK
B11: H7-Ab6 (antibody, V domains shown)
VH: EVQLVESGGGLVKPGGSLRLSCTASGFTFSDYPMSWVRQAPGKGLEWLSSISTGSTYIYYADSVKGRFTISRDNAQNSMYLQMNSLRAEDTAIYYCARGAKVELALGWYFDLWGRGTLVTVSS
VL: QSVLTQPPSVSAAPGQKVTISCSGSNSNIGNNFVSWYQQLPGTAPKLLIYDNNKRPSGIPDRVSGSKSGTSATLGITGLQTGDEADYYCGTWDNRLSAAVFGGGTKLTVL
B12: H7-Ab7 (antibody, V domains shown)
VH: QVQLQESGGGLVQPGGSLRLSCAASGFTFSAYAMNWVRQAPGKGLDWVSGIGGNGGITKYADSVKGRFTISRDNSKKTLYLQMNSLTAEDTAVYYCAKDASWDVRGWFDPWGQGTLVTVSS
VL: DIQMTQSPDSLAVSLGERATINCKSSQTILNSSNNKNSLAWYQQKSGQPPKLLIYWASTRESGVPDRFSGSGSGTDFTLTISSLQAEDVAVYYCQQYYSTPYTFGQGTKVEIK
B13: H7-Ab12 (antibody, V domains shown)
VH: EVQLVESGPGLVKPAQTLSLTCTVSGGSISSGGDYWSWIRQHPGKGLEWIGYIYYSGNAFYNPSLKSRVSMSVDTSKNQFSLKLSSVSAADTAVYYCARVRGVYFWGQGTLATVSS
VL: EIVMTQSPGTLSLSPGERATLSCRASQSVSSSHLAWYQQKPGQAPRLLIYGASSRATGIPDRFSGSGSGTDFTLTISRLEPEDFAVYYCQQYGSSLPPWTFGQGTKVEIK
B14: H7-Ab8 (antibody, V domains shown)
VH: EVQLVQSGGGVVLPGRSLRLSCAASGFTFSNHGMHWVRQAPGKGLEWMAVIWSDGTTKYYADSVKGRFTISRDNSKNTVYLQMNSLRAEDTAVYYCAREVIYSGYFFDHWGQGTTVTVSS
VL: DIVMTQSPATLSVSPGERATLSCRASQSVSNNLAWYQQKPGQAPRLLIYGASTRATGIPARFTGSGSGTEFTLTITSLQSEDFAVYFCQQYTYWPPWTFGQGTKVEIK
B15: H7-Ab10 (antibody, V domains shown)
VH: WVQLVESGGGLVQPGGSLRLSCVDSGSTFSKYWMTWVRQAPGKGLEWVANIKEDGSKEYYMESLKGRFTISRDNAKNSLYLQISTLRAEDTAVYYCATSSGWRFEVWGRGTTVTVSS
VL: QSALTQPPSASGSPGQSVTISCTGTSSDVGTYNYVSWYQQQADKAPKLIIFDVDKRPSGVPDRFSGSKSGNTASLTVSGLQADDEADYYCSSYAGTKHWIFGGGTKLTVL
B16: H7-Ab11 (antibody, V domains shown)
VH: QVQLQESGPRLVKPSQTLSLTCAVSGGSITSNDYNWSWIRQHPGKGLEWIGYIYHSGNTFYNPALESRVSMSVDTSKNQFSLRLTSVTAADTAVYFCARTQRSTVAHIVGPVQGRFHFDYWSQGTLVTVSS
VL: DIQMTQSPGTLSLSPGERVTLSCRASRSVSPYYLAWYQQKPGQAPRLLIYGSSTRATGIPDRFSGSGSGTDFTLTINKLEPEDFAIYYCQQYGRSSGFVFGPGTKVDIK
B17: TT-Ab1 (antibody, V domains shown)
VH: QVQLQESGAEVKNLGASVKVSCKASGYIFTNYGITWVRQAPGQGLEWIGWTTIYNGNTNYARKLQGRVTMTTGTSTRTAYMELRSLKSDDTAMYYCARGLRHYHDGSPLEYWGQETTVTVSS
VL: DIVMTQSPGTLSLSPGERVTLSCRASQSVGSSYLAWYQQKPGQTPRLLVFGASSRATGIPDRFSGSGSGTDFTLTISRLEPEDFAVYYCQLYGNSLITFGQGTRLEIK
B18: TT-Ab6 (antibody, V domains shown)
VH: EVQLLESGGGLVRPGGSLRLSCAASGFSFNDHYMTWVRQAPGKGLEWVSYISDGRVTTNYAASVKGRFIISRDNTKKTVYLQMNSLTAEDTAVYYCARVGPWPVMKGAFDSWGQGTLVTVSS
VL: DIQMTQSPGTLSLSPGERATISCRASQSVSSDYLVWYQQKPGQAPRLLIYGASRRATGIPDRFSGSGSGTDFTLTISRLEPEDFAVYYCQQYGSSPLFAFGPGTKVEIK
B19: TT-Ab2 (antibody, V domains shown)
VH: EVQLVESGAEVKKPGASVKLSCKASGYTVTSDYMHWVRQAPGQGLEWMGIINPSDGSTNYPRKFQGRVTMTRDTSTRTVYMEVSSLRSEDTAVYYCAGGGQRFTFDYWGQGATVTVSS
VL: QSALTQPASVSGSPGQSITISCTGTSGNVGSHNLVSWYQQHPGEAPKLVISDINRRPSGVSNRFSGSKSGNTASLTISGLQAEDEADYFCCSYAGNSNVIFGGGTKLTVL
B20: TT-Ab8 (antibody, V domains shown)
VH: EVQLVESGGGLVQPGGSLRLSCAASGFTFSYYDMNWVRQAPGKGLEWLSYISGSGGVIYYADSVKGRFTISRDNAKNSLFLQMNSLRAEDTAVYYCARDPSPGRLGFFDYWGQGTLVTVSS
VL: EIVMTQSPAILSVSPGERATLSCRASQRVSSNLAWYQQKPGQAPRLLIYGASTRATGIPARFSGSGSGTEFTLTISSLQSEDCAIYYCQQYNNWPRTFGQGTKVEIK
B21: TT-Ab11 (antibody, V domains shown)
VH: QVQLQESGPGLVKPSQTLSLTCNVSDGSISSDGYYWSWLRQHPGKGPEWIGYIHHSGHPYYNPSLKSRVTMSIDTSKNQFALKLSSVTAVDTAMYYCARVRGTGYYPGTLDLWGQGTLVTVSS
VL: EIVLTQSPGTLSLSPGERATLSCRASQSVSSSYFAWYQQIPGQAPRLLIYGTSNRATGIPDRFSGSGSGKDFTLTISRLEPEDFAVYYCQQFGSSPLTFGGGTKVEIK
B22: TT-Ab5 (antibody, V domains shown)
VH: EVQLVQSGAEVKKPGSSVKVSCTAPGVTFSTYPIDWVRQAPGQGLEWMGGIIPISGSPKYAQKFQGRVAITADGFTNTAYLELSSLRSEDTAVYYCATRESGYDGQFDYWGQGTLVTVSS
VL: QSVLTQPPSASGTPGQRVTISCTGSTSNIGNNYVYWYQQVPGTAPTLLIYRSNQRPSGVPDRFSGSKSGTSASLAISGLRSEDEADYYCATWDDSLGVVFGGGTKLTVL

target: T1, H1N1 HA (A/California/04/2009) (Influenza A virus A/California/04/2009 …, UniProt C3W5S1, strain); experiment: SPR; details: both partners purified
T1 construct: source: bought: Sino Biological

| Binder | Kd |
| --- | --- |
| B1 | 0.56 nM |
| B2 | 0.0819 nM |
| B3 | 0.467 nM |
| B4 | 0.066 nM |
| B5 | 0.155 nM |
| B6 | 0.001 nM |
| B7 | 14 nM |
| B8 | 0.372 nM |

target: H7N9 HA (A/Shanghai/1/2013) (Influenza A virus A/Shanghai/1/2013 …, strain); experiment: not given; details: not given

| Binder | binding result |
| --- | --- |
| B9 | binds |
| B10 | binds |
| B11 | binds |
| B12 | binds |
| B13 | binds |
| B14 | binds |
| B15 | binds |
| B16 | binds |

target: tetanus toxoid (Clostridium tetani, production strain …, UniProt P04958); experiment: not given; details: not given

| Binder | binding result |
| --- | --- |
| B17 | binds |
| B18 | binds |
| B19 | binds |
| B20 | binds |
| B21 | binds |
| B22 | binds |
